Assays:
[1] = molecular target: recombinant rhesus macaque VEGFR2‐His protein (Macaca mulatta, UniProt F7E313); experiment: ELISA
[2] = molecular target: recombinant human VEGFR2 protein (Octet) (Homo sapiens, UniProt P35968); experiment: BLI
[3] = molecular target: VEGFR2 on VEGFR2 overexpressing 293FT cells (Homo sapiens (assumed), UniProt P35968); experiment: cell-based or functional assay
VEGFR2 on VEGFR2 overexpressing 293FT cells, sequence (P35968 20-1356): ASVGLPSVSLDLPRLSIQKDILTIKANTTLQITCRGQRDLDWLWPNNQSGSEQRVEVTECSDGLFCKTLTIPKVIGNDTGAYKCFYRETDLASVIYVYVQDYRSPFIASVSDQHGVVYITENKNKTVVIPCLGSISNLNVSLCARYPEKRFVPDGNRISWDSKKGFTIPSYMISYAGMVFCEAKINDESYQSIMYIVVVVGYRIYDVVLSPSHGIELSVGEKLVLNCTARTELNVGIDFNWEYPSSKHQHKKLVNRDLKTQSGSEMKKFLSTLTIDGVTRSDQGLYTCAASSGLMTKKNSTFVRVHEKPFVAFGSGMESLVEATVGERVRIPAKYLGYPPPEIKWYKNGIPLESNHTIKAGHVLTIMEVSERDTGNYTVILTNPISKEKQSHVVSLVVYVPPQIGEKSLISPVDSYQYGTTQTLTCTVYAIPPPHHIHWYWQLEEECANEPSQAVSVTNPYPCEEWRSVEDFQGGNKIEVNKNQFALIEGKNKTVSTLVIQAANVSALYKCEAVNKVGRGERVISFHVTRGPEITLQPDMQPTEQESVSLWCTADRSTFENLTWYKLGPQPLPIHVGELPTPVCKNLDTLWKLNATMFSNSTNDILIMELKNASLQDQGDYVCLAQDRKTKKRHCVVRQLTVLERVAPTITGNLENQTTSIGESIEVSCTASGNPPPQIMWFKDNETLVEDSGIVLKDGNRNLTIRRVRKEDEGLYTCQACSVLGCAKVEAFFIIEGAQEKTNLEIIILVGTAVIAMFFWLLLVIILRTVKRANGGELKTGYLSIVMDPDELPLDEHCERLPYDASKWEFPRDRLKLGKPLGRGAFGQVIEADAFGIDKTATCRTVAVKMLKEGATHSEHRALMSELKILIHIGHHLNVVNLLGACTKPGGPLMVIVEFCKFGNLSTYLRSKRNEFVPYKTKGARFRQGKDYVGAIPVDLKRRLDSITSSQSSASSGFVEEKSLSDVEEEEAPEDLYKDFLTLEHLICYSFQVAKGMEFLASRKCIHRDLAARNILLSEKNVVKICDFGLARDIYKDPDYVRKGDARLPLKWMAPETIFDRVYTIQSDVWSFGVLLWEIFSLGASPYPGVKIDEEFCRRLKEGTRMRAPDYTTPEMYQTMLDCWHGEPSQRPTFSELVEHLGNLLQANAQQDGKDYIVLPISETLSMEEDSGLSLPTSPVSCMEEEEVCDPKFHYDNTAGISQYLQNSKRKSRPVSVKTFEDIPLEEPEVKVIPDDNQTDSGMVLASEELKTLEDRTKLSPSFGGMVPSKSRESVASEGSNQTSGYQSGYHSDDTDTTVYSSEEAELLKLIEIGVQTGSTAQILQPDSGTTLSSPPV

recombinant human VEGFR2 protein (Octet), sequence (P35968 20-1356): as above

B1: ramucirumab (antibody, V domains shown)
VH: EVQLVQSGGGLVKPGGSLRLSCAASGFTFSSYSMNWVRQAPGKGLEWVSSISSSSSYIYYADSVKGRFTISRDNAKNSLYLQMNSLRAEDTAVYYCARVTDAFDIWGQGTMVTVSS
VL: DIQMTQSPSSVSASIGDRVTITCRASQGIDNWLGWYQQKPGKAPKLLIYDASNLDTGVPSRFSGSGSGTYFTLTISSLQAEDFAVYFCQQAKAFPPTFGGGTKVDIK
In the case of B1, the binding result [1] is reported as “binds”, the Kd [2] is reported as 0.0458 nM and the “EC50 of neutralisation of HUVEC proliferation induced by human VEGF-C” value [3] is reported as 0.0874 µg/mL. For the same binder, the “EC50 of neutralisation of HUVEC proliferation induced by human VEGF-C+VEGF-D” value [3] was 0.086 µg/mL.
